The target of experiment [1] is Flag-Strep2-tagged Methanococcus aeolicus McrG (tag at the N-terminus of McrG, NG) (Methanococcus aeolicus). Put plainly: native MS; intact protein mass spectrometry (12 T FT-ICR, nano-electrospray) of purified NG-tagged MCRaeo, 10 μM in 200 mM ammonium acetate pH 7.6.
Experiment [2] shares this target. Put plainly: affinity purification with mass spectrometry; Flag-Strep2-tagged subunit expressed with its mcr operon (full or truncated) in M. maripaludis at 37 °C; lysate on Strep-Tactin Superflow Plus in 100 mM Tris-HCl pH 7.6, 150 mM NaCl, eluted with 2.5 mM desthiobiotin, then Q-Sepharose anion exchange; SDS-PAGE, bands identified by MALDI-TOF MS, relative abundance by LC-MS/MS.

For experiment [3], the target named is Flag-Strep2-tagged Methanococcus aeolicus McrB (tag at the N-terminus of McrB, NB) (Methanococcus aeolicus). The experiment is described as above.
Experiment [4] concerns the target Flag-Strep2-tagged Methanococcus aeolicus McrA (tag at the C-terminus of McrA, CA) (Methanococcus aeolicus). The experiment is described as above.
In experiment [5] the target is Methanococcus aeolicus McrB (untagged) (Methanococcus aeolicus). As to the kind of experiment: native MS; intact protein mass spectrometry (12 T FT-ICR, nano-electrospray) of purified NG-tagged MCRaeo, 10 μM in 200 mM ammonium acetate pH 7.6.
Experiment [6] addresses Methanococcus aeolicus McrA (untagged) (Methanococcus aeolicus). The experiment is described as above.

Regarding “Flag-Strep2-tagged Methanococcus aeolicus McrG (tag at the N-terminus of McrG, NG) (natural protein)”, in experiment [1], the stoichiometry N (usually the number of molecules, sites or subunits per partner or assembly) is 2.
On to “untagged host Methanococcus maripaludis McrG (natural protein)”, for which the percent of the total McrG in the purified complex in experiment [2], in experiment [3] and in experiment [4] was 30% in each case.
For “Methanococcus aeolicus McrB (untagged) (natural protein)”, the stoichiometry N in experiment [5] amounted to 2.
In the case of “Methanococcus aeolicus McrA (untagged) (natural protein)”, the stoichiometry N in experiment [6] is 2.
